The results in this text go back to patent publication US20070184488.

Data set [1] has as its target T1, EVNLAAEF (SEQ ID NO: 258).
T1 chain: EVNLAAEF

For data set [2], the target named is T2, P1′ peptide library component with P1′=Gly.
T2 chain: EVNLGAEF

Data set [3] deals with T3, EVNLDAEF, Swedish mutant APP 8-mer peptide (SEQ ID NO: 257).
T3 chain: EVNLDAEF

Data set [4] deals with T4, P1′ peptide library component with P1′=Pro.
T4 chain: EVNLPAEF

Data set [5] deals with T5, EVNFAVEF (SEQ ID NO: 261).
T5 chain: EVNFAVEF

Data set [6] concerns the target T6, P1′ peptide library component with P1′=Glu.
T6 chain: EVNLEAEF

The target of data set [7] is T7, EVNFEVEF (SEQ ID NO: 262).
T7 chain: EVNFEVEF

The target in data set [8] is T8, EVNFEAEF (SEQ ID NO: 260).
T8 chain: EVNFEAEF

Data set [9] deals with T9, EVNFAAEF (SEQ ID NO: 259).
T9 chain: EVNFAAEF

B1: β-secretase (protein)
chain: ETDEEPEEPGRRGSFVEMVDNLRGKSGQGYYVEMTVGSPPQTLNILVDTGSSNFAVGAAPHPFLHRYYQRQLSSTYRDLRKGVYVPYTQGKWEGELGTDLVSIPHGPNVTVRANIAAITESDKFFINGSNWEGILGLAYAEIARPDDSLEPFFDSLVKQTHVPNLFSLQLCGAGFPLNQSEVLASVGGSMIIGGIDHSLYTGSLWYTPIRREWYYEVIIVRVEINGQDLKMDCKEYNYDKSIVDSGTTNLRLPKKVFEAAVKSIKAASSTEKFPDGFWLGEQLVCWQAGTTPWNIFPVISLYLMGEVTNQSFRITILPQQYLRPVEDVATSQDDCYKFAISQSSTGTVMGAVIMEGFYVVFDRARKRIGFAVSACHVHDEFRTAAVEGPFVTLDMEDCGYNIPQTDESTLMTIAY
In the case of B1, the Relative rates of hydrolysis (relative to SEQ ID NO: 257) in [1] came out at 10; in data set [3] it was 1; in data set [5], 30; in data set [7], 60; in data set [8], 17; in data set [9], 17. For the same protein, the “depletion of full length peptide substrate (LC/MS)” value in data set [1] is “most rapidly hydrolyzed by β-secretase (P1′=Glu and P1′=Ala)”; in data set [2], “two peptides that were not cleaved by β-secretase (P1′=Gly and P1′=Pro)”; in data set [3], “one intermediate sequence (P1′=Asp-the residue normally present in Swedish mutant APP)”; in [4] it was “two peptides that were not cleaved by β-secretase (P1′=Gly and P1′=Pro)”; in data set [6], “most rapidly hydrolyzed by β-secretase (P1′=Glu and P1′=Ala)”. In addition, the “formation of C-terminal cleavage products (LC/MS)” value in [1] is “more rapid and comparable rates of formation of the products represented by P1′=Ala and P1′=Glu”; in data set [3] it was “the P1′=Asp product shows formation consistent with this residue being less conducive to β-secretase hydrolysis than either Glu or Ala”; in data set [6], “more rapid and comparable rates of formation of the products represented by P1′=Ala and P1′=Glu”.
